Measurements taken from PMC11474084, “Capturing a methanogenic carbon monoxide dehydrogenase/acetyl-CoA synthase complex via cryogenic electron microscopy” (Proceedings of the National Academy of Sciences of the …, 2024).

B1: Methanosarcina thermophila carbon monoxide dehydrogenase (MetCODH) α subunit (enzyme, UniProt A0A0E3ND19 1-803, looked up)
chain: MSKLTTGSFSIEDLESVQITINNIVGAAKEAAEKAEEELGPMGPTPFPTAATVRDWSFTLFDRYEPVYTPMCDQCCYCTFGPCNLEGNRRGACGLDMKGQAAREFFLRCITGCACHSAHGRHLLDHIISIFGEDMPINMGASNVIAPNIQLITGRQPKTLGDLKPIMEYVEEELGQLLATVHAGQEGAAIDYDNKAMLAGILDHVGMEVSDIAQVTALGFPKSDPEAPLVEVGMGTLDASKPVIIAIGHNVAGVTYIMDYMEDNNLTDKMEIGGLCCTAFDMTRYKREDRKPPYAKIVGTISKELKVVRSGIPDVIVIDEQCVRADLVEEGKKLKIPVIASNEKVMYGLPDRTNDDVDAIIEDIKTGKIPGCVMLDYEKLGELVPRLAMEMAPLREGISAIPSDEEMASLVAKCVACGECALACPEELDIPDAIQAAKEGDFTALDFLHDLCVGCRRCEQVCNKEIPILSVIDKAAQKAIAEEKGLVRAGRGQVSDAEIRAEGLNLVMGTTPGVIAIIGCANYPAGSKDVYRIAEEFLNRNYIVAVSGCSAMDIGMYKDADGKTLYERFPGRFERGNILNTGSCVSNSHISGTCHKVAAIFAGRNLSGNLAEIADYTLNRVGAVGLAWGAYSQKAAAIGTGCNMYGIPAVLGPHSGKYRRALIAKTYDENKWKVYDSRNGSELDIPPSPEFLITTAETWQEACVLLAKNCIRPSDNNMGRSIKLTHWIELSEKYLGVLPEDWWKFVRHEADLPLSRREELLKKLETEHGWEIDWKKKKIISGPKIKFDVSSQPTNLKRLCKEA
notes: α subunit of the CODH component of the acetyl-CoA decarbonylase/synthase (ACDS) complex, Methanosarcina thermophila strain TM-1; source: purified from M. thermophila strain TM-1 as part of the ACDS complex (Sepharose CL-6B); subcomplexes formed by dissociation on the cryo-EM grid
B2: Methanosarcina thermophila acetyl-CoA synthase (MetACS) β subunit (enzyme, UniProt A0A0E3NEI1 1-472, looked up)
chain: MSEFPFEISPMFEGERVRKEGMFVELGGPKSLGLELVRAKPMDEIEDGKVTIVGPDLKDMEEGKTYPWAMIFHVGGELVEPDLESVIERRVHDFINYCQGIMHLNQRYDVWMRISKDTAAKMDSFEPFGKAVMMLFKTELPFIEKMQVTFYTDQAEVEKQMAEAMEIFKARDARTKDLHDEDVDVFYGCTLCQSFAPTNVCVVSPDRVSLCGAINWFDGRAAAKVDPEGPQFAIEKGELLDAKTGEYSGVNEVAKKLSSGEFDKIKLHSFFDAPHTSCGCFEVVGFYIPEVDGIGWVNREYQGMAPNGLGFSTMAGQTGGGKQIVGFLGIGINYFYSPKFIQADGGWNRVVWLPSMLKEKIDEAIPDDMKDKIATEKDVTDIESLKTFLKEKNHPVVANWAAEAEEEEEEEEEEEEVAAEAAPMMMPAAGFQMPAMPAMPMMSGGAGGIKLTFKNAKITIDRMIISEKKEKK
notes: β (ACS) subunit of the ACDS complex, Methanosarcina thermophila strain TM-1; native protein; the model building counts residues 1 to 472, of which 398 to 472 (C-terminal extension) had no EM density; A2 domain residues 4 to 151, A3 domain residues 186 to 397; Carries the Ni-Fe-S A-cluster, with density modelled as CO on the proximal nickel; The deposited coordinates hold only about residues 1-397 …

Key:
[1] = biological target: the molecule itself; test: cryo-EM structure; purified native ACDS complex, 4 mg/mL in 25 mM MOPS, 25 mM Na2SO4, pH 7.2; chameleon-plunged, dispense-to-plunge time 150 ms; on-grid dissociation gave CODH tetramer (2.8 Å), CODH/ACS pentamer and hexamer (3.2 Å each)
[2] = biological target: B1; test: as above; details: both partners purified

binding result [2]	Binder	binding result [1]
	B1	binds
binds	B2	
